Assay results taken from a protein production outcome set (Wang et al. 2014).

Test: label from the status in PepcDB records

Sequence | protein production
MQRPHVQEAEATAAPQQRTGASATFAELLKRVKAEGLLDLDPRYYIGRLALNTTLLLVGFAAFFALGDSWWQLVVALWMGLCGGQSAFMWHDAGHKAMFRSKKAASAVGYFHANLVNGVSFGWWVNHHNRHHSNPNHLDMDPDIGRRTAIFDIKQYPTRRGTQKFIVRYQSVLFFALLVTESFKMLKTAVLSIAQGKTKRPVLESFLLLARAAVYLTLVFTVLSPVLAVAFVLVQQAALGVYFGMIFAPNHKGMEVRDGDEETLDWLERQVLTSRNIRPSLFIDFLYGGLNYQVEHHLFPAMPQKNLARARELTRAYCAERGVPYHEVGFWASYREVASFLHEVSAPVRRGDVEEQIRRQAGQAA | failed
MQSATDVAEYCKYDGFDGLKRAISLSDEEILNELDIAHLRGRGGAAYPLGKKWRHLYHAKGTTKYIVCNADEGEPGTFKDKVLLSEDPLSVIEGMIIAGYLFSAKAGYIYMRGEYRRIQKTFQEALDNARQAGFLGENILGIEGFNYDITIISGAGAYICGENSALLNSIEGKTGRPRVKPPHLADVGLYLQPTLVNNVESFASVPVILREGGQAFLEMGTADGGGTKLICLSGHIKNRGLYEVNLGTPLEEIIYGEQYGGGSATGRALKFIHFGGQSGPIGAVATLRDCLYSYEDLWAHDLSVGSGAIVVMDDSVNVVDYLVHVAAFFAHESCGKCTPCRLGTTRILELLSKFNRNEATASDLPRLEKMLTHVTRLSACGLGQSVANPMKSALALFPEEFETTAETEIYATSKGGWLEHHHHHH | not failed
MQSDHKEKIAILVDVQNVYYTCREAYRSNFDYNQFWYVATQEKEVVSAKAYAIASNDPKQRQFHHILRGVGFEVMLKPYIQRRDGSAKGDWDVGITLDAIEIAPDVDRVILVSGDGDFSLLVERIQQRYNKKVTVYGVPRLTSQTLIDCADNFVAIDDDFLL | not failed
MQSDVVLGAAHWVYLLSVVAIILTMVLRANAVVPSVLGTFLVVLAFTGSPIQALVGIFTASFVAAKELFNIFLVITFMTALLNALKVLQADVRMVQPLRRVMTNGHASFLILAGCTYGLSLFFWPTPAVPLVCAILLPAAVAAGLPPLAGAMAIAIAGQGMALSSEYVIGVAPGISAKAAGAAVSAAVVADRALVLSVITGAIALVMTYLFMRKHIVPGDTALLAAWQARAQDGELERIEGSGSFDKAELARGASQPVKGGAEARLAGWSRAFALITPIAFLGVIALMALPRLVPGLPALRGGDAAALVGGVAFMLMMLATLAAEGPRRMLDVCPEHVTDGFVFAFRAMGSVLPIAGFFFIGAAETAAPILGLESGHAPGLLFDLISAAQHLIPENHYLVAFGVLLVGMVTGIDGSGFAGLPLTGTLSGALGPVVGIDPATLAAVGQMGAVWTGGGTLIAWSSLIAVAGFARVHVLDMVRALMLPVLLALSVSTIAAILIWS | failed
MQSLHGNCLIAYARHKYILTMVNGEYRYFNGGDLVFADASQIRVDKCVENFVFVSRDTLSLFLPMLKEEALNLHAHKKVSSLLVHHCSRDIPVFQEVAQLSQNKNLRYAEMLRKRALIFALLSVFLEDEHFIPLLLNVLQPNMRTRVCTVINNNIAHEWTLARIASELLMSPSLLKKKLREEETSYSQLLTECRMQRALQLIVIHGFSIKRVAVSCGYHSVSYFIYVFRNYYGMTPTEYQERSAQRLSNRDSAASIVAQGNFYGTDRSAEGIRL | failed
MQSPPHDPASALAIRNHYRQSQSRAARLRLLVDTGQELIQLPPEAMRKCVLQRACAFVAMDHGLLLEWGADNGVQTTARHGSKERLSTLETTADPLAIGPQWLERPGTHLPCVLLLPLRGADEGSFGTLVLANSVAISAPDGEDIESLQLLATLLAAHLENNRLLEALVARDRTMSQLVRQLFTAQEDERKRVAYDLHDGLAQTLAGLHQRLQGFAGRCPELPAQLDADLQAILKLAQHCVGEGRQLISGLRPAVLDDFGLWQAVDKEADRLREAGIIVQWTSQSLERLPSHLEIALFRIAQEGINNVLKHANASCVELALELSDGNVSLRLQDNGRGFITEKPINGTGVQKLGLVAMQERASLLGGRLTCVSRPGRGTRLRTIVPFTADKAIT | failed
MQSRSDGSWVLTLSRRLDAPSGEFAGVVLVTLQLKYFQNYYSTFEVGPHGTIGMTNDDGIVMVRRPDKQGVIGTSIAGTSIYVTMRARKHGTATYRSPIDRVERISSFAPARPYPLTVLTGFSVDDALANWRETARQRIVVAALGCTLLLGVGIWLDLQLRRMHRNEAKLSTEAWVDALTGIANRRAFDHRLSRALQDAVRLEAPLSVLMIDVDHFKLYNDTYGHVNGDACLRLIAGAIAGCSRRSEDLAARYGGEEFGMILPHTDAAGALRLADAVRNAVAELGLMHLSSPTSAHVTVSIGAATFEPGEAPLSPNAIVHDADSALYRAKQKGRNRTSA | failed
